Measured values reported in patent US7173041B2, “Polyglutamic acid-camptothecin conjugates and methods of preparation” (priority 2000, dated 2007).
Entries after “also recorded” stand apart in the source; their conditions may differ.

What was measured:
[1] = Maximum tolerated dose (MTD) in mice; assay type: in vivo; details: for Murine single dose MTD (IP): mice, loadings as in Table 3
Text: (§1) All injections were given intraperitoneally (IP). […] The MTD is the maximum tolerated equivalent camptothecin dose.

B16 melanoma (B-16-F0) = assay: Tumor growth delay (TGD), subcutaneous B16 melanoma in C57BL/6 mice; assay type: in vivo, murine; details: for relative anti-tumor efficacy (comparison in words): B16 model
Protocol: (§2) Tumors were produced in the […] of the right interscapular region by subcutaneously injecting 1.0×10^5 murine melanoma cells (B-16-F0; ATTC CRL-6322) in a volume of 0.2 ml PBS supplemented with 2% FBS. […] Camptothecin conjugates were dissolved in a 0.1 M Na2HPO4 solution by sonication at 45° C. for 45–60 minutes. Native camptothecins were dissolved in a mixture of 8.3% Cremophor EL/8.3% ethanol in 0.75% saline. All injections were given intraperitoneally (IP). Each treatment group consisted of 10 mice randomly allocated to each group. Tumor volume was calculated according to the formula (length×width×height)/2. Mice with tumors equal to or greater than 2000 mm^3 were euthenized by cervical dislocation. Tumor efficacy of test compounds was determined by calculating the tumor growth delay (TGD): the average time in days for the tumors in the treatment group to reach a fixed volume minus the average time for the tumors in the control group to reach the same volume. An unpaired Student's t-test was done to determine statistical differences. The compounds were tested at different concentrations to determine their MTD. The MTD is the maximum tolerated equivalent camptothecin dose.

[2] = test system: HT-29 human colon carcinomas; assay: Tumor growth delay, HT-29 xenografts in athymic ncr nu/nu mice; details: for TGD (days to 500 mm^3) HT-29: PG 50 kD
Protocol: as §2
(§3) In addition to the above-mentioned models, one other syngeneic model was used viz. LL/2 Lewis lung (ATTC CRL-1642) and 2 xenogeneic models were used viz. human NCI-H460 lung carcinomas (ATTC HTB-177) and HT-29 human colon carcinomas (ATTC HTB-38). In these xenogeneic models instead of immunocompetent C57BL/6 mice, immunocompromised athymic ncr nu/nu mice were used. Except for the number of tumor cells implanted to generate tumors the experimental protocol and procedures were identical to that for the B-16/F0 model.

animal tumor models = assay: General comparison of PG-camptothecin conjugates in animal tumor models; design: species or system mice; details: mouse, in vivo
Text: as §1

[3] = Aqueous solubility of PG-camptothecin conjugates; details: for Aqueous solubility: % CPT in conjugate (w/w): PG-CPT 14, PG-gly-CPT 37, PG-(10-OAc-CPT) 13, PG-(10-O-CPT) 13, PG-gly-(10-O-CPT) 20, PG-(10-OH-CPT) 19, PG-(9-NH-CPT) 14
[4] = test system: NCI-H460 human non-small cell lung cancer xenografts; assay: NCI-H460 xenografts in female nude mice, dosing every 4th day x4; assay type: in vivo
Protocol: Female nude mice with 7–8 mm subcutaneous NCI-H460 human non-small cell lung cancer xenografts were treated with PG-gly-CPT on days 1, 5, 9, and 13 at a dose of 40 mg/kg 20(S)-camptothecin per injection. The tested dose of 40 mg eq. […] Although there were no deaths, weight loss was approximately 20% of the starting weight. The absolute tumor growth delay (defined as difference in days for tumors to grow from 8 mm to 12 mm between the treated and the control groups) was 43 days for the PG-gly-CPT treated mice.

[5] = test system: human NCI-H460 lung carcinomas; assay: Tumor growth delay, NCI-H460 xenografts in athymic ncr nu/nu mice; assay type: in vivo; details: PG 50 kD
Protocol: as §2, §3

[6] = test system: NCI-H322 human lung cancer; assay: NCI-H322 human lung cancer s.c. in female nude mice; assay type: in vivo; details: 33 kD, 37% loaded, i.v. days 9, 13, 17, 21 at 40 mg/kg 20(S)-camptothecin equivalent
Protocol: The antitumor activity of PG-gly-CPT (33 kD, 37% loaded) on NCI-H322 (ATTC CRL-5806) human lung cancer inoculated s.c. in female nude mice was studied. The drug was injected i.v. on days 9, 13, 17 and 21 at a 20(S)-camptothecin equivalent dose of 40 mg/kg when tumors measured 7–8 mm in diameter. The TGD was 40 days.

[7] = test system: NCI-H1299 human lung cancer cells; assay: NCI-H1299 human lung cancer s.c. in female nude mice; details: 30 mg eq. 20(S)-camptothecin every 4th day x4
Protocol: 20(S)-camptothecin/kg in the prior experiment in nude mice, the dose was lowered to 30 mg eq. 20(S)-camptothecin every 4th day×4.

[8] = Table 4, PG 50 kD (PG-CPT: 33 kD)
[9] = second experiment, i.p., same schedule
[10] = CPT loading 19%, dose 33 mg CPT/kg
[11] = CPT loading 33%, dose 38 mg CPT/kg
[12] = CPT loading 39%, dose 40 mg CPT/kg
[13] = CPT loading 47%, dose 40 mg CPT/kg
[14] = 40 mg eq. 20(S)-camptothecin/kg every 4th day x4
[15] = CPT loading 30%, dose 34 mg CPT/kg

**Q.** Which MTD [1, 8] does the source give for PG-(2-O-acetyl)-CPT here?
**A.** ≧80 mg CPT/kg

**Q.** And the “TGD (days to 500 mm^3) B16” value (B16 melanoma (B-16-F0); CPT loading 15%, dose 80 mg CPT/kg, PG 50 kD)?
**A.** 3.8 days

**Q.** Which MTD [1, 8] does the source give for PG-(4-NH-butyryl)-CPT here?
**A.** ≧80 mg CPT/kg

**Q.** What about the “TGD (days to 500 mm^3) B16” value (B16 melanoma (B-16-F0); CPT loading 32%, dose 80 mg CPT/kg, PG 50 kD) of the same substance?
**A.** 0.9 days

**Q.** Which MTD [1, 8] does the source give for PG-(4-O-butyryl)-CPT here?
**A.** ~36 mg CPT/kg

**Q.** What about the “TGD (days to 500 mm^3) B16” value (B16 melanoma (B-16-F0); CPT loading 32%, dose 37 mg CPT/kg, PG 50 kD) of the same substance?
**A.** 2.8 days

**Q.** And the “TGD (days to 500 mm^3) HT-29” value ([2]; CPT loading 24%, dose 36 mg CPT/kg)?
**A.** 13.1 days

**Q.** Which MTD ([1]; mouse, in vivo) does the source give for PG-(9-NH-CPT) here?
**A.** > 25 mg eq. 20(S)-9-aminocamptothecin/kg

**Q.** And the “Murine single dose MTD (IP)” value [1]?
**A.** >25 mg eq. CPT/kg

**Q.** And the “overall efficacy, tolerability and solubility (in words)” value (animal tumor models)?
**A.** active

**Q.** And the Aqueous solubility [3]?
**A.** 7000 µg/mL

**Q.** With PG-(10-O-CPT) as the substance, how does the “Murine single dose MTD (IP)” value [1] read?
**A.** 50 mg eq. CPT/kg

**Q.** And the Aqueous solubility [3]?
**A.** 10000 µg/mL

**Q.** What does the source list for PG-(10-OAc-CPT)?
**A.** Murine single dose MTD (IP) [1]: 10–20 mg eq. CPT/kg; TGD (B16 melanoma (B-16-F0); 50 mg eq. 20(S)-10-hydroxycamptothecin/kg, p<0.01 compared to control): 5.3 days; relative anti-tumor efficacy (comparison in words) (B16 melanoma (B-16-F0)): appeared more active at 50 mg eq. 20(S)-10-hydroxycamptothecin/kg than PG-gly-(10-O-CPT); aqueous solubility / solution behaviour (in words) [3]: solution was very viscous; Aqueous solubility [3]: 10000 µg/mL; time after which the compound precipitated out of solution ([3]; dosing solution): approx. 30 min

**Q.** Which “Murine single dose MTD (IP)” value [1] does the source give for PG-(10-OH-CPT) here?
**A.** >50 mg eq. CPT/kg

**Q.** What about the “relative anti-tumor efficacy (comparison in words)” value (B16 melanoma (B-16-F0)) of the same substance?
**A.** not as effective as the PG-(10-OAc-CPT) or the PG-gly-(10-OH-CPT)

**Q.** And the Aqueous solubility [3]?
**A.** >10000 µg/mL

**Q.** For PG-(β-ala)-CPT, which MTD [1, 8] is on record?
**A.** ≧67 mg CPT/kg

**Q.** And the “TGD (days to 500 mm^3) B16” value (B16 melanoma (B-16-F0); CPT loading 31%, dose 67 mg CPT/kg, PG 50 kD)?
**A.** 1.1 days

**Q.** What does the source list for PG-(γ-glu)-CPT?
**A.** MTD [1, 8]: ≧54 mg CPT/kg; TGD (days to 500 mm^3) B16 (B16 melanoma (B-16-F0); CPT loading 21%, dose 54 mg CPT/kg, PG 50 kD): 0.8 days

**Q.** Which results are given for PG-CPT?
**A.** MTD [1, 8]: ≧80 mg CPT/kg; Murine single dose MTD (IP) [1]: 60–80 mg eq. CPT/kg; TGD (days to 500 mm^3) B16 (B16 melanoma (B-16-F0); CPT loading 20%, dose 80? mg CPT/kg, PG 33 kD): 4.0 days; toxicity observations [4, 9]: without observable toxicity; tumor growth delay [4, 9]: substantial growth delay

**Q.** For PG-ala-CPT, which MTD [1, 8] is on record?
**A.** ≧73 mg CPT/kg

**Q.** What about the “TGD (days to 500 mm^3) B16” value (B16 melanoma (B-16-F0); CPT loading 20%, dose 73 mg CPT/kg, PG 50 kD) of the same substance?
**A.** 2.2 days

**Q.** Which Aqueous solubility [3] does the source give for PG-gly-(10-O-CPT) here?
**A.** >10000 µg/mL

**Q.** For PG-gly-(10-OH-CPT), which “relative anti-tumor efficacy (comparison in words)” value (B16 melanoma (B-16-F0)) is on record?
**A.** approximately twice as efficacious as PG-gly-(7-Et-10-OH-CPT)

**Q.** With PG-gly-CPT as the substance, how does the “MTD in male ncr nu/nu mice” value ([1]; PG 50 kD, (mono) glycine linker, 35–37% 20(S)-camptothecin) read?
**A.** 40 mg/kg 20(S)-camptothecin equivalents

**Q.** What about the MTD [1, 8] of the same substance?
**A.** ~40 mg CPT/kg

**Q.** And the “Murine single dose MTD (IP)” value [1]?
**A.** 60–80 mg eq. CPT/kg

**Q.** And the “TGD (days to 500 mm^3) B16” value (B16 melanoma (B-16-F0); CPT loading 32%, dose 35 mg CPT/kg, PG 50 kD)?
**A.** 3.3 days

**Q.** And the “TGD (days to 500 mm^3) HT-29” value [2, 10]?
**A.** 4.1 days

**Q.** And the “TGD (days to 500 mm^3) HT-29” value ([2]; CPT loading 33%, dose 33 mg CPT/kg)?
**A.** 11.9 days

**Q.** What about the “TGD (days to 500 mm^3) HT-29” value [2, 11] of the same substance?
**A.** 20.3 days

**Q.** What about the “TGD (days to 500 mm^3) HT-29” value [2, 12] of the same substance?
**A.** 25.8 days

**Q.** What about the “TGD (days to 500 mm^3) HT-29” value [2, 13] of the same substance?
**A.** 5.8 days

**Q.** And the “tolerability of repeated dosing” value ([2]; ip, 4 times with a weekly interval, total dose 3 times the single dose)?
**A.** very well tolerated

**Q.** What about the “TGD (days to 500 mm^3) NCI-H460” value [5, 11] of the same substance?
**A.** 15.8 days

**Q.** What about the “TGD (days to 500 mm^3) NCI-H460” value [5, 12] of the same substance?
**A.** 38.5 days

**Q.** What about the “TGD (days to 500 mm^3) NCI-H460” value [5, 13] of the same substance?
**A.** 6.5 days

**Q.** What about the toxicity observations [4, 14] of the same substance?
**A.** no deaths; also recorded: modestly exceeded the MTD

**Q.** What about the “weight loss, of the starting weight” value [4, 14] of the same substance?
**A.** approximately 20%

**Q.** And the “absolute tumor growth delay (tumors to grow from 8 mm to 12 mm, treated vs control)” value ([4]; 40 mg/kg 20(S)-camptothecin per injection, days 1, 5, 9, 13)?
**A.** 43 days

**Q.** And the TGD [6]?
**A.** 40 days

**Q.** What about the TGD [7] of the same substance?
**A.** 32 days

**Q.** And the tolerability [7]?
**A.** well-tolerated

**Q.** What does the source list for PG-gly-gly-CPT?
**A.** MTD [1, 8]: ≧33 mg CPT/kg; TGD (days to 500 mm^3) HT-29 [2, 10]: 4.5 days

**Q.** Which results are given for PG-gly-gly-gly-CPT?
**A.** MTD [1, 8]: ≦34 mg CPT/kg; TGD (days to 500 mm^3) HT-29 [2, 10]: 6.9 days; TGD (days to 500 mm^3) HT-29 [2, 15]: 28.4 days; TGD (days to 500 mm^3) NCI-H460 [5, 15]: 38.5 days
